B1: FUNDC2 (parent)
chain: YIKVDWQRVEKDMKKAKEQLKIRK

Variants of: B1
Assay: protein stability index of a GFP-peptide fusion (GPS, HEK-293T) (PSI 1-6); higher = more stable
Conditions: c terminus: a fixed tail appended
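Further: lentivirally expressed fusions sorted by FACS into six bins by GFP to DsRed ratio, PSI derived from sequencing read proportions per bin multiplied by bin number.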

| Variant | protein stability index |
| --- | --- |
| RIKVDWQRVEKDMKKAKEQLKIRK | 3.6 |
| HIKVDWQRVEKDMKKAKEQLKIRK | 3.34 |
| VIKVDWQRVEKDMKKAKEQLKIRK | 2.53 |
| AIKVDWQRVEKDMKKAKEQLKIRK | 2.98 |
| KIKVDWQRVEKDMKKAKEQLKIRK | 3.09 |
| YIKVDWQRVEKDMKPAKEQLKIRK | 1.72 |
| YIKVDWQRVEKDMKDAKEQLKIRK | 2.05 |
| YIKVDWQRVEKDMKEAKEQLKIRK | 1.55 |
| YIKVDWQRVEKDMKRAKEQLKIRK | 1.92 |
| YIKVDWQRVEKDMKGAKEQLKIRK | 1.89 |
| YIKVDWQRVEKDMKWAKEQLKIRK | 1.94 |
| YIKVDWQRVEKDMKYAKEQLKIRK | 2.14 |
| YIKVDWQRVEKDMKIAKEQLKIRK | 2.01 |
| YIKVDWQRVEKDMKKAKEQLFIRK | 1.69 |
| YIKVDWQRVEKDMKKAKEQLWIRK | 2.06 |
| YIKVDWQRVEKDMKKAKEQLNIRK | 1.91 |
| YIKVDWQRVEKDMKKAKEQLDIRK | 1.86 |
| YIKVDWQRVEKDMKKAKEQLLIRK | 1.71 |
| YIKVDWQRVEKDMKKAKEQLPIRK | 1.84 |
| YIKVDWQRVEKDMKKAKEQLGIRK | 2.13 |
| YIKVDWQRVEKDMKKAKEQLQIRK | 1.62 |
| YIKVYWQRVEKDMKKAKEQLKIRK | 3.3 |
| YIKVQWQRVEKDMKKAKEQLKIRK | 1.62 |
| YIKVFWQRVEKDMKKAKEQLKIRK | 2.33 |

| Variant | protein stability index |
| --- | --- |
| YIKVSWQRVEKDMKKAKEQLKIRK | 1.47 |
| YIKVTWQRVEKDMKKAKEQLKIRK | 2.29 |
| YIKVRWQRVEKDMKKAKEQLKIRK | 1.78 |
| YIKVGWQRVEKDMKKAKEQLKIRK | 2.43 |
| YIKVNWQRVEKDMKKAKEQLKIRK | 2.19 |
| YIKVDWQRVEKDMDKAKEQLKIRK | 1.65 |
| YIKVDWQRVEKDMRKAKEQLKIRK | 2.12 |
| YIKVDWQRVEKDMEKAKEQLKIRK | 1.42 |
| YIKVDWQRVEKDMFKAKEQLKIRK | 1.51 |
| YIKVDWQRVEKDMLKAKEQLKIRK | 2.19 |
| YIKVDWQRVEKDMAKAKEQLKIRK | 1.6 |
| YIKVDWQRVEKDMNKAKEQLKIRK | 1.61 |
| YIKVDWKRVEKDMKKAKEQLKIRK | 1.95 |
| YIKVDWPRVEKDMKKAKEQLKIRK | 1.37 |
| YIKVDWERVEKDMKKAKEQLKIRK | 1.92 |
| YIKVDWARVEKDMKKAKEQLKIRK | 1.79 |
| YIKVDWSRVEKDMKKAKEQLKIRK | 1.76 |
| YIKVDWYRVEKDMKKAKEQLKIRK | 1.69 |
| YIKVDWIRVEKDMKKAKEQLKIRK | 2.7 |
| YIKVDWRRVEKDMKKAKEQLKIRK | 1.43 |
| YIKVDWGRVEKDMKKAKEQLKIRK | 2.9 |
| YIKFDWQRVEKDMKKAKEQLKIRK | 1.73 |
| YIKHDWQRVEKDMKKAKEQLKIRK | 2.52 |
| YIKRDWQRVEKDMKKAKEQLKIRK | 2.74 |

| Variant | protein stability index |
| --- | --- |
| YIKIDWQRVEKDMKKAKEQLKIRK | 2.53 |
| YIKMDWQRVEKDMKKAKEQLKIRK | 1.45 |
| YIKSDWQRVEKDMKKAKEQLKIRK | 2.25 |
| YIKADWQRVEKDMKKAKEQLKIRK | 3.41 |
| YIKVDWQRVEKDMKKAKEQLKERK | 2.65 |
| YIKVDWQRVEKDMKKAKEQLKTRK | 1.57 |
| YIKVDWQRVEKDMKKAKEQLKSRK | 2.01 |
| YIKVDWQRVEKDMKKAKEQLKHRK | 1.88 |
| YIKVDWQRVEKDMKKAKEQLKYRK | 1.88 |
| YIKVDWQRVEKDMKKAKEQLKNRK | 1.98 |
| YIKVDWQVVEKDMKKAKEQLKIRK | 1.74 |
| YIKVDWQPVEKDMKKAKEQLKIRK | 2.48 |
| YIKVDWQDVEKDMKKAKEQLKIRK | 2.05 |
| YIKVDWQNVEKDMKKAKEQLKIRK | 1.79 |
| YIKVDWQKVEKDMKKAKEQLKIRK | 2.01 |
| YIKVDWQEVEKDMKKAKEQLKIRK | 2.15 |
| YIKVDWQIVEKDMKKAKEQLKIRK | 1.82 |
| YIKVDWQQVEKDMKKAKEQLKIRK | 1.68 |
| YIKVDWQRVEFDMKKAKEQLKIRK | 1.64 |
| YIKVDWQRVEMDMKKAKEQLKIRK | 1.57 |
| YIKVDWQRVETDMKKAKEQLKIRK | 2.56 |
| YIKVDWQRVEQDMKKAKEQLKIRK | 2.12 |
| YIKVDWQRVENDMKKAKEQLKIRK | 2.59 |
| YIKVDWQRVELDMKKAKEQLKIRK | 1.46 |

| Variant | protein stability index |
| --- | --- |
| YIKVDWQRVEDDMKKAKEQLKIRK | 2.06 |
| YIKVDWQRVEEDMKKAKEQLKIRK | 2.01 |
| YIKVDWQRVEKDMKKAQEQLKIRK | 1.65 |
| YIKVDWQRVEKDMKKASEQLKIRK | 2.62 |
| YIKVDWQRVEKDMKKAWEQLKIRK | 1.66 |
| YIKVDWQRVEKDMKKALEQLKIRK | 2.21 |
| YIKVDWQRVEKDMKKAEEQLKIRK | 2.15 |
| YIKVDWQRVEKDMKKADEQLKIRK | 1.67 |
| YIKVDWQRVEKDMKKAVEQLKIRK | 1.64 |
| YIKVDWQRVEKDMKKACEQLKIRK | 2.19 |
| YIKVDWQRVEKDMKKAKPQLKIRK | 2.48 |
| YIKVDWQRVEKDMKKAKWQLKIRK | 1.16 |
| YIKVDWQRVEKDMKKAKHQLKIRK | 2.41 |
| YIKVDWQRVEKDMKKAKQQLKIRK | 1.99 |
| YIKVDWQRVEKDMKKAKDQLKIRK | 1.44 |
| YIKVDWQRVEKDMKKAKAQLKIRK | 1.97 |
| YIKVDWQRVEKDMKKAKNQLKIRK | 1.72 |
| YIKVDWQRVEKDMKKAKKQLKIRK | 1.84 |
| YIKVDWQRVEKDMKKAKYQLKIRK | 1.84 |
| YIKVDWQRVEKDMKKAKLQLKIRK | 2.12 |
| YIKVDWQRVEKDMKKAKEQEKIRK | 2.4 |
| YIKVDWQRVEKDMKKAKEQFKIRK | 4.29 |
| YIKVDWQRVEKDMKKAKEQCKIRK | 2 |
| YIKVDWQRVEKDMKKAKEQVKIRK | 1.77 |

| Variant | protein stability index |
| --- | --- |
| YIKVDWQRVEKDMKKAKEQWKIRK | 2.65 |
| YIKVDWQRVEKDMKKAKEQHKIRK | 1.71 |
| YIKVDWQRVEKDMKKAKEQQKIRK | 1.42 |
| YIKVDWQRVEKDMKKAKEQLKIRS | 1.67 |
| YIKVDWQRVEKDMKKAKEQLKIRN | 2.07 |
| YIKVDWQRVEKDMKKAKEQLKIRQ | 1.31 |
| YIKVDWQRVEKDMKKAKEQLKIRL | 2.16 |
| YIKVDWQRVEKDMKKAKEQLKIRD | 2.02 |
| YIKVDWQRVEKDMKKAKEQLKIRT | 1.76 |
| YIKVDWQRVEKDMKKAKEQLKIRC | 2.47 |
| YIKVDWQRVEKDMKKAKEVLKIRK | 1.19 |
| YIKVDWQRVEKDMKKAKEKLKIRK | 1.32 |
| YIKVDWQRVEKDMKKAKEWLKIRK | 1.79 |
| YIKVDWQRVEKDMKKAKEDLKIRK | 1.98 |
| YIKVDWQRVEKDMKKAKENLKIRK | 1.81 |
| YIKVDWQRVEKDMKKAKEALKIRK | 1.86 |
| YIKVDWQRVEKDMKKAKEHLKIRK | 1.33 |
| YIKVDWQRVEKDMKKAKEPLKIRK | 1.82 |
| YIKVDWQRVEKDMKKAKEILKIRK | 1.49 |
| YIKVDWQRVEKDMKKAKECLKIRK | 1.43 |
| YEKVDWQRVEKDMKKAKEQLKIRK | 4.42 |
| YMKVDWQRVEKDMKKAKEQLKIRK | 4.03 |
| YPKVDWQRVEKDMKKAKEQLKIRK | 2.54 |
| YKKVDWQRVEKDMKKAKEQLKIRK | 3.35 |

| Variant | protein stability index |
| --- | --- |
| YSKVDWQRVEKDMKKAKEQLKIRK | 3.37 |
| YDKVDWQRVEKDMKKAKEQLKIRK | 3.58 |
| YFKVDWQRVEKDMKKAKEQLKIRK | 2.74 |
| YQKVDWQRVEKDMKKAKEQLKIRK | 1.75 |
| YIMVDWQRVEKDMKKAKEQLKIRK | 1.91 |
| YIRVDWQRVEKDMKKAKEQLKIRK | 2.18 |
| YILVDWQRVEKDMKKAKEQLKIRK | 1.67 |
| YIFVDWQRVEKDMKKAKEQLKIRK | 1.98 |
| YINVDWQRVEKDMKKAKEQLKIRK | 2.22 |
| YIGVDWQRVEKDMKKAKEQLKIRK | 2.54 |
| YIYVDWQRVEKDMKKAKEQLKIRK | 3.14 |
| YIVVDWQRVEKDMKKAKEQLKIRK | 2.79 |
| YICVDWQRVEKDMKKAKEQLKIRK | 2.86 |
| YIKVDWQRPEKDMKKAKEQLKIRK | 1.81 |
| YIKVDWQRKEKDMKKAKEQLKIRK | 2.45 |
| YIKVDWQREEKDMKKAKEQLKIRK | 2.56 |
| YIKVDWQRREKDMKKAKEQLKIRK | 1.73 |
| YIKVDWQRCEKDMKKAKEQLKIRK | 1.94 |
| YIKVDWQRWEKDMKKAKEQLKIRK | 1.99 |
| YIKVDWQRTEKDMKKAKEQLKIRK | 1.66 |
| YIKVDWQRMEKDMKKAKEQLKIRK | 1.26 |
| YIKVDWQRVEKPMKKAKEQLKIRK | 1.45 |
| YIKVDWQRVEKEMKKAKEQLKIRK | 1.82 |
| YIKVDWQRVEKVMKKAKEQLKIRK | 3.62 |

| Variant | protein stability index |
| --- | --- |
| YIKVDWQRVEKHMKKAKEQLKIRK | 1.03 |
| YIKVDWQRVEKRMKKAKEQLKIRK | 1.91 |
| YIKVDWQRVEKDMKKRKEQLKIRK | 2.08 |
| YIKVDWQRVEKDMKKPKEQLKIRK | 2.13 |
| YIKVDWQRVEKDMKKTKEQLKIRK | 1.89 |
| YIKVDWQRVEKDMKKEKEQLKIRK | 1.43 |
| YIKVDWQRVEKDMKKSKEQLKIRK | 1.75 |
| YIKVDWQRVEKDMKKAKEQLKIVK | 2.26 |
| YIKVDWQRVEKDMKKAKEQLKIPK | 1.63 |
| YIKVDWQRVEKDMKKAKEQLKIQK | 2.07 |
| YIKVDWQRVEKDMKKAKEQLKICK | 1.57 |
| YIKVDWQRVEKDMKKAKEQLKILK | 1.6 |
| YIKVDWQRVEKDMKKAKEQLKIDK | 2.06 |
| YIKVDWQRVEKDMKKAKEQLKIGK | 1.69 |
| YIKVDWQRVEKDMKKAKEQLKIMK | 1.97 |
| YIKVDWQRVEKDMKKAKEQLKITK | 2.19 |
| YIKVDWQRVEKDMKKAKEQLKIKK | 2.6 |
| YIKVDWQRVEKDMKKAKEQLKISK | 2.02 |
| YIKVDWQRVEKDMKKAKEQLKINK | 3.5 |
| YIKVDWQRVEKDMKKAKEQLKIYK | 1.67 |
| YIKVDWQRVEKDMKKAKEQLKIHK | 1.9 |
| YIKVDAQRVEKDMKKAKEQLKIRK | 3.39 |
| YIKVDRQRVEKDMKKAKEQLKIRK | 2.97 |
| YIKVDNQRVEKDMKKAKEQLKIRK | 3.23 |

| Variant | protein stability index |
| --- | --- |
| YIKVDQQRVEKDMKKAKEQLKIRK | 2.71 |
| YIKVDKQRVEKDMKKAKEQLKIRK | 3.09 |
| YIKVDGQRVEKDMKKAKEQLKIRK | 2.81 |
| YIKVDEQRVEKDMKKAKEQLKIRK | 2.91 |
| YIKVDDQRVEKDMKKAKEQLKIRK | 3.77 |
| YIKVDWQRVEKDIKKAKEQLKIRK | 1.89 |
| YIKVDWQRVEKDFKKAKEQLKIRK | 1.79 |
| YIKVDWQRVEKDGKKAKEQLKIRK | 2.32 |
| YIKVDWQRVEKDSKKAKEQLKIRK | 2.21 |
| YIKVDWQRVEKDDKKAKEQLKIRK | 1.83 |
| YIKVDWQRVEKDVKKAKEQLKIRK | 1.95 |
| YIKVDWQRVEKDHKKAKEQLKIRK | 1.82 |
| YIKVDWQRVEKDAKKAKEQLKIRK | 1.24 |
| YIKVDWQRVEKDWKKAKEQLKIRK | 2.29 |
| YIKVDWQRVYKDMKKAKEQLKIRK | 1.79 |
| YIKVDWQRVKKDMKKAKEQLKIRK | 1.73 |
| YIKVDWQRVFKDMKKAKEQLKIRK | 1.78 |
| YIKVDWQRVNKDMKKAKEQLKIRK | 1.62 |
| YIKVDWQRVDKDMKKAKEQLKIRK | 1.85 |
| YIKVDWQRVSKDMKKAKEQLKIRK | 2.33 |

Reference: the supplement of paper PMC10567573
